Substitutions are numbered along the chain they refer to.
T1: human Siglec15 on human-siglec15-2D3-1E1 cells (human, UniProt Q6ZMC9 20-328)
T1 construct: whole, on cells; Transfected HEK-293 cells; also called cell surface human Siglec15
T1 sequence (looked up): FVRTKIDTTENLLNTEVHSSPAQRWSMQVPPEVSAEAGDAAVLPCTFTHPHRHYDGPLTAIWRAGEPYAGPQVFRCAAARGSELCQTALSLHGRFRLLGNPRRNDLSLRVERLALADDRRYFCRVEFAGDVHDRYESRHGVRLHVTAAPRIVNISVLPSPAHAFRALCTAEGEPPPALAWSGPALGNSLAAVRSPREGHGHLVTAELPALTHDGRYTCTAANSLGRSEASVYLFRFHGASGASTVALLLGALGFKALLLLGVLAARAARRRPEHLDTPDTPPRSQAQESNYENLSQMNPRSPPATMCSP

T2: recombinant human Siglec15-his protein (human, UniProt Q6ZMC9 20-263)
T2 construct: In house made; Biotin-labeled in the capture ELISA
T2 sequence: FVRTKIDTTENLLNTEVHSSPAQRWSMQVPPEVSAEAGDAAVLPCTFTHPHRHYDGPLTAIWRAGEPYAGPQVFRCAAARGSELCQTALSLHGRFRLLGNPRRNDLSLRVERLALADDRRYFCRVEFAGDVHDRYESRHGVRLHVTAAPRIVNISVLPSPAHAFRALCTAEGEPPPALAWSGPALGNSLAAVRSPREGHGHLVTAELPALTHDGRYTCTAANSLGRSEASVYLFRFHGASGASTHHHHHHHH

T3: cynomolgus monkey Siglec15-his protein (cynomolgus monkey)
T3 construct: In house made; also called Cynomolgus Siglec15-his; cynomolgus Siglec15
T3 chain: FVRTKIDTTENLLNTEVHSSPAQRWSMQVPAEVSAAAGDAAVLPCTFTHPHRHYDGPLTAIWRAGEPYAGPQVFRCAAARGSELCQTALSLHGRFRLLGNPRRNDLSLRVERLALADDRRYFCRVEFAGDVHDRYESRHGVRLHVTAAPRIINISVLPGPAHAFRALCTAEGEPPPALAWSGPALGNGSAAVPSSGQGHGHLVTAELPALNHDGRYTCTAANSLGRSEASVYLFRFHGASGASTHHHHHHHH

B1: A2A5C7E8 (antibody, V domains shown)
VH: EVQLVQSGAEVKKPGESLRISCKGSGYSFTTYWISWVRQMPGKGLEWMGLIDPSDSYTNYSPSFQGHVTISTDKSISTAYLQWSSLKASDTAMYYCARGGYYGSEEDYWGQGTLVTVSS
VL: EIVLTQSPGTLSLSPGERATLSCRASQSVSSSRLAWFQQKSGQAPRLLIFDASSRATGIPDRFSGSGSGTDFTLTISRLEPEDFAVYYCQQYGSSPRTFGQGTKVEFK
notes: Fully human antibody from transgenic mouse hybridoma; also called A2A5C7E8-1
B2: anti-Siglec15 benchmark (ch5G12) (antibody, human IgG1, kappa, V domains shown)
VH: QVQLQQPGAELVKPGASVKMSCKASGYTFTSYWITWVIQRPGQGLEWIGDIYCGSDTMHYNEKFKNKATLTVDTSSSTAYMQLSSLTSEDSAVYYCARWWDYGSSYDYFDYWGQGTTLTVSS
VL: DIKMTQSPSSMYASLGERVTITCKASQDINSYLSWFQQKPGKSPKTLIYRANRLVDGVPSRFSGSGSGQDYSLTISSLEYEDMGIYYCLQYDEFPYTFGGGTKLEIKR
notes: ch5G12 (US 20190202912A1); also called BM; Siglec15-ch5G9
B3: A1E10G7H9 (antibody, V domains shown)
VH: QVQLQESGPGLVKPSGTLSLTCAVSGGSISSSNWWHWVRQPPGKGLEWIGEIYHSGNTNYKPSLKSRVTISVDKSKNQFSLKLSSVTAADTAVYYCARDEGNGWSNAFDIWGQGTMVTVSS
VL: ENVLTQSPGTLSLSPGERVTLSCRASQSVSSSYLAWYQQKPGQAPRFLIYGASGGATGIPDRFSGSGSGTDFTLTISRLEPEDFAVYYCQQYGSSPITFGQGTRLEIK
notes: Fully human antibody from transgenic mouse hybridoma
B4: A2A5C7E8-2 (antibody, human IgG1, kappa, V domains shown)
VH: B1 VH with D55E
VL: EIVLTQSPGTLSLSPGERATLSCRASQSVSSSRLAWFQQKSGQAPRLLIFDASSRATGIPDRFSGSGSGTDFTLTISRLEPEDFAVYYCQQYGSSPRTFGQGTKVEFKR
notes: Variant of A2A5C7E8 modified in VH CDR2 (X1 = E)
B5: A2A5C7E8-3 (antibody, human IgG1, kappa, V domains shown)
VH: B1 VH with Q65K
VL: B4 VL
notes: Variant of A2A5C7E8 modified in VH CDR2 (X2 = K)
B6: B2D7H7A3C1 (antibody, V domains shown)
VH: QVQLQQSGAELVRPGTSVQMSCKAAGYTFTNYWIGWVKQRPGHGLEWVGDIHPGINYTNNNEKFRGKATLTADTSSNTAYMQLRGLTSDDSAIYYCARVDYDYDGSYIMDYWGQGTSVTVSS
VL: QIVLSQSPALLSASPGEKVTMTCRASSSVSYMYWYQQKPGSSPKPWIYATSNLTSGVPARFSGSGSGTSYSLTISRVEAEDAATYFCQQWNSKPWTFGGGSKLEIR
notes: Mouse monoclonal antibody from hybridoma; also called mouse B2D7H7A3C1
B7: B2H2H1H7 (antibody, V domains shown)
VH: B6 VH with N77S
VL: B6 VL with V3I, K102R
notes: Mouse monoclonal antibody from hybridoma; also called mouse B2H2H1H7; B2H2H1A7
B8: B2G12H3E8 (antibody, V domains shown)
VH: B6 VH with Q5K, A25V, N77S
VL: B6 VL
notes: Mouse monoclonal antibody from hybridoma; also called mouse B2G12H3E8

The binders below were run against T1, human Siglec15 on … (assay: cell based binding FACS on human-siglec15-2D3-1E1 cells).
Protocol: The binding activities of the anti-Siglec15 antibodies to cell surface Siglec15 were tested by flow cytometry (FACS), using in-house prepared human-siglec15-2D3-1E1 cells expressing human Siglec15 (amino acid residues Met1-Pro328 of uniprot #Q6ZMC9) on cell membranes. The human-siglec15-2D3-1E1 cells were prepared by transfecting HEK-293 cells (ATCC #CRL-1573) with pCMV-T-P plasmids inserted with human Siglec15 coding sequence between EcoRI and XbaI sites, following the instruction of lipofectamine 3000 transfection reagent (Thermo Fisher). The human-siglec15-2D3-1E1 cells were harvested from cell culture flasks, washed twice and re-suspended in phosphate buffered saline (PBS) containing 2% v/v Fetal Bovine Serum (FACS buffer). 2×10⁵ cells per well in 96 well-plates were incubated in 100 μL serially diluted anti-Siglec15 antibodies or controls (starting at 66.67 nM, 5-fold serial dilution) in FACS buffer for 40 minutes on ice. […] Following a 40-minute incubation at 4° C. in dark, cells were washed three times and re-suspended in FACS buffer. Fluorescence was measured using a Becton Dickinson FACS Canto II-HTS equipment. Data was analyzed using Graphpad Prism software and EC₅₀ values were reported.

EC50	Binder
24.1 nM	B1
11.3 nM	B2
0.182 nM	B3

What follows are binders tested against T2, recombinant human Siglec15-his protein (assay: SPR Biacore T200, antibody captured by anti-human IgG, antigen as analyte, 1:1 fit).
Protocol: (§1) Briefly, goat anti-human IgG (GE healthcare, Cat #BR100839, Human Antibody Capture Kit) was covalently linked to a CM5 chip (carboxy methyl dextran coated chip, GE healthcare, Cat #BR-1005-30) via primary amines, using a standard amine coupling kit provided by Biacore (GE healthcare, Pittsburgh, Pa., USA). Un-reacted moieties on the biosensor surface were blocked with ethanolamine. Then, purified anti-Siglec15 antibodies of the disclosure at the concentration of 13.3 nM and an anti-Siglec15 benchmark (ch5G12, also referred to as BM, see U.S. Patent Publication No. 20190202912A1, amino acid sequences of the heavy chain and light chain set forth in SEQ ID NOs: 24 and 25, respectively) at 13.3 nM, were respectively flowed onto the chip at a flow rate of 10 μL/min. Then, serially diluted recombinant human Siglec15-his protein (in house made, amino acid sequence set forth in SEQ ID NO: 20) or cynomolgus monkey Siglec15-his protein (in house made, amino acid sequence set forth in SEQ ID NO: 21), 2-fold serial dilution in HBS-EP⁺ buffer starting at 80 nM, were respectively flown onto the chip at a flow rate of 30 μL/min. The antigen-antibody association kinetics was followed for 2 minutes and the dissociation kinetics was followed for 10 minutes. The association and dissociation curves were fit to a 1:1 Langmuir binding model using BIAcore evaluation software.

Kd	koff	kon	Binder
0.0383 nM	7.45e-05 s⁻¹	1.94e+06 M⁻¹ s⁻¹	B1
0.164 nM	0.000273 s⁻¹	1.66e+06 M⁻¹ s⁻¹	B4
0.0396 nM	7.46e-05 s⁻¹	1.88e+06 M⁻¹ s⁻¹	B5
0.422 nM	0.000955 s⁻¹	2.27e+06 M⁻¹ s⁻¹	B2

Biological target: T3, cynomolgus monkey Siglec15-his protein
Experiment: as above
Protocol: as §1

Kd	koff	kon	Binder
0.0704 nM	7.96e-05 s⁻¹	1.13e+06 M⁻¹ s⁻¹	B1
0.147 nM	0.000167 s⁻¹	1.14e+06 M⁻¹ s⁻¹	B4
0.0751 nM	5.32e-05 s⁻¹	708000 M⁻¹ s⁻¹	B5
0.688 nM	0.000781 s⁻¹	1.13e+06 M⁻¹ s⁻¹	B2

What follows are binders tested against T2, recombinant human Siglec15-his protein (assay: SPR Biacore T200, antibody captured by anti-mouse IgG, antigen as analyte, 1:1 fit).
Protocol: Briefly, goat anti-mouse IgG (GE healthcare, Cat #BR100838, Mouse Antibody Capture Kit) was covalently linked to a CM5 chip (carboxy methyl dextran coated chip from GE healthcare, Cat #BR100530) via primary amines using a standard amine coupling kit (GE healthcare, Pittsburgh, Pa., USA) provided by Biacore. Un-reacted moieties on the biosensor surface were blocked with ethanolamine. The purified mouse anti-Siglec15 antibodies of the disclosure at the concentration of 13.3 nM, were respectively flowed onto the chip at a flow rate of 10 μL/min. Then, serially diluted human Siglec15-his protein (in house made, amino acid sequence set forth in SEQ ID NO: 20), cynomolgus monkey Siglec15-his protein (in house made, amino acid sequence set forth in SEQ ID NO: 21), or mouse Siglec15-his protein (in house made, amino acid sequence set forth in SEQ ID NO: 22), 2-fold dilution in HBS-EP⁺ buffer (provided by Biacore) starting at 80 nM, were flowed onto the chip at a flow rate of 30 μL/min. The antigen-antibody association kinetics was followed for 2 minutes and the dissociation kinetics was followed for 10 minutes. The association and dissociation curves were fit to a 1:1 Langmuir binding model using BIAcore evaluation software.

Kd	koff	kon	Binder
0.0352 nM	5.46e-05 s⁻¹	1.55e+06 M⁻¹ s⁻¹	B6
0.016 nM	3.18e-05 s⁻¹	1.99e+06 M⁻¹ s⁻¹	B7
0.00858 nM	1.76e-05 s⁻¹	2.05e+06 M⁻¹ s⁻¹	B8

Reference: patent publication US20230106715A1 (BIOSION, published 2023)
